Assay results published in patent US7341992B2, “Lectin-like domain of thrombomodulin and its therapeutic use” (Vlaams Interuniversitair Instituut Voor Biotechnologie VZW, priority 2001, dated 2008).

Tested on: fEND.5 cells
Assay: Static adhesion assay: human neutrophils on activated fEND.5 cells
Format: cell-based, murine endothelial cell line
Settings: for LPS-induced adhesion of human neutrophils to fEND.5 cells (effect in words) / PMN Adhesion to LPS-stimulated fEND.5 Cells, Mean: LPS 20 μg/ml 3 hrs; for PMN Adhesion to LPS-stimulated fEND.5 Cells, Mean / PMN Adhesion to TNF-stimulated fEND.5 Cells, Mean: human neutrophils 50,000 per well; for TNF-induced adhesion of human neutrophils to fEND.5 cells (effect in words) / PMN Adhesion to TNF-stimulated fEND.5 Cells, Mean: TNFα 200 U/ml 3 hrs
Description: Static adhesion assays using human neutrophils (50,000 per well) and confluent fEND.5 cells in 24-well plates were performed exactly as described (see below—Methods section 11). Where noted, TNFα (200 U/ml) or LPS 20 μg/ml, were used to activate the fEND.5 cells for 3 hrs. PMNs were co-incubated with one of the recombinant human TM fragments 1, 2 or 4, (SEQ ID NO 1, 2, 4) or with HPLC-purified peptides representing human TM fragments 3,6 or 7 (SEQ ID NO 3, 6, 7). Tables 11-17 show results, where the amount of recombinant fragment in μg is shown on the bar graphs, and * indicates p<0.05 as compared with buffer control (i.e. without recombinant protein) under the same conditions. In all cases, appropriate controls were used for comparisons.
Endothelial cells were plated in 24-well dishes and grown to confluence. Following 2 washes of the cell monolayers with HBSS, freshly prepared BCECF-AM-labeled, neutrophils derived from human peripheral blood, or murine bone marrow-derived PMNs or lymphocytes 50,000 per well, were added in a final volume of 1 ml for 30 minutes at room temperature. The media was decanted and the cell monolayers were gently washed three times with HBSS after which the adherent fluorescently labeled leukocytes were counted with an inverted epiflourescence microscope as described above.

Question: For “pept n^o 23: HPLC-purified peptide, amino acids 84-97 of SEQ ID NO: 1 (human TM)”, which “LPS-induced adhesion of human neutrophils to fEND.5 cells (effect in words)” value is on record?
Answer: significantly suppressed

Question: What about the “PMN Adhesion to LPS-stimulated fEND.5 Cells, Mean” value (1 μg of fragment) of the same molecule?
Answer: 31.015

Question: And the “PMN Adhesion to LPS-stimulated fEND.5 Cells, Mean” value (5 μg of fragment)?
Answer: 21.535

Question: Which results are given for “pept. N^o 24: HPLC-purified peptide, amino acids 3-33 of SEQ ID NO: 1 (human TM) (PQPGGSQCVEHDCFALYPGPATFLNASQICD; PEPTIDE (1)...(31) Human thrombomodulin fragment 3; listed as Homo sapiens)”?
Answer: LPS-induced adhesion of human neutrophils to fEND.5 cells (effect in words): significantly suppressed; PMN Adhesion to LPS-stimulated fEND.5 Cells, Mean (1 μg of fragment): 38.830; PMN Adhesion to LPS-stimulated fEND.5 Cells, Mean (5 μg of fragment): 44.019; PMN Adhesion to LPS-stimulated fEND.5 Cells, Mean (8 μg of fragment): 22.000

B1: pr. 480 bp: Recombinant human TM fragment, amino acids 1 to 157 of the mature protein, expressed in Pichia pastoris (protein, listed as Homo sapiens)
chain: AEPQPGGSQCVEHDCFALYPGPATFLNASQICDGLRGHLMTVRSSVAADVISLLLNGDGGVGRRRLWIGLQLPPGCGDPKRLGPLRGFQWVTGDNNTSYSRWARLDLNGAPLCGPLCVAVSAAEATVPSEPIWEEQQCEVKADGFLCEFHFPATCRP
modifications: PEPTIDE (1)...(157) Human thrombomodulin fragment 2
notes: Recombinant human TM fragment, amino acids 1 to 157 of the mature protein, expressed in Pichia pastoris
Question: What does the source list for B1?
Answer: LPS-induced adhesion of human neutrophils to fEND.5 cells (effect in words): significantly suppressed; PMN Adhesion to LPS-stimulated fEND.5 Cells, Mean (5 μg of fragment): 27.68; PMN Adhesion to LPS-stimulated fEND.5 Cells, Mean (8 μg of fragment): 25.50; PMN Adhesion to LPS-stimulated fEND.5 Cells, Mean (15 μg of fragment): 19.01

B2: pr. 680 bp: Recombinant human TM fragment, amino acids 1 to 224 of the mature protein, entire N-terminal domain, expressed in Pichia pastoris (protein, listed as Homo sapiens)
chain: AEPQPGGSQCVEHDCFALYPGPATFLNASQICDGLRGHLMTVRSSVAADVISLLLNGDGGVGRRRLWIGLQLPPGCGDPKRLGPLRGFQWVTGDNNTSYSRWARLDLNGAPLCGPLCVAVSAAEATVPSEPIWEEQQCEVKADGFLCEFHFPATCRPLAVEPGAAAAAVSITYGTPFAARGADFQALPVGSSAAVAPLGLQLMCTAPPGAVQGHWAREAPGAWD
modifications: PEPTIDE (1)...(224) Human thrombomodulin fragment 1
notes: Recombinant human TM fragment, amino acids 1 to 224 of the mature protein, entire N-terminal domain, expressed in Pichia pastoris
Question: For B2, which “LPS-induced adhesion of human neutrophils to fEND.5 cells (effect in words)” value is on record?
Answer: significantly suppressed

Question: What about the “PMN Adhesion to LPS-stimulated fEND.5 Cells, Mean” value (5 μg of fragment) of the same molecule?
Answer: 29.403

Question: And the “PMN Adhesion to LPS-stimulated fEND.5 Cells, Mean” value (8 μg of fragment)?
Answer: 24.292

Question: And the “PMN Adhesion to LPS-stimulated fEND.5 Cells, Mean” value (15 μg of fragment)?
Answer: 18.333

Question: And the “TNF-induced adhesion of human neutrophils to fEND.5 cells (effect in words)” value?
Answer: significantly suppressed

Question: And the “PMN Adhesion to TNF-stimulated fEND.5 Cells, Mean” value (5 μg of fragment)?
Answer: 85.656

Question: What about the “PMN Adhesion to TNF-stimulated fEND.5 Cells, Mean” value (10 μg of fragment) of the same molecule?
Answer: 24.303

B3: pr. 400 bp: Recombinant human TM fragment, amino acids 33 to 159 of the mature protein, expressed in Pichia pastoris (protein, listed as Homo sapiens)
chain: DGLRGHLMTVRSSVAADVISLLLNGDGGVGRRRLWIGLQLPPGCGDPKRLGPLRGFQWVTGDNNTSYSRWARLDLNGAPLCGPLCVAVSAAEATVPSEPIWEEQQCEVKADGFLCEFHFPATCRPLA
modifications: PEPTIDE (1)...(127) Human thrombomodulin fragment 4
notes: Recombinant human TM fragment, amino acids 33 to 159 of the mature protein, expressed in Pichia pastoris
Question: Which results are given for B3?
Answer: LPS-induced adhesion of human neutrophils to fEND.5 cells (effect in words): suppressed; PMN Adhesion to LPS-stimulated fEND.5 Cells, Mean (5 μg of fragment): 33.642; PMN Adhesion to LPS-stimulated fEND.5 Cells, Mean (8 μg of fragment): 29.725; TNF-induced adhesion of human neutrophils to fEND.5 cells (effect in words): suppressed; PMN Adhesion to TNF-stimulated fEND.5 Cells, Mean (8 μg of fragment): 53.417; PMN Adhesion to TNF-stimulated fEND.5 Cells, Mean (20 μg of fragment): 63.500
